# Biological target: AMC-Ubiquitin, P62979
protein,measurement,value
recombinant USP22 (protein) MVSRPEPEGEAMDAELAVAPPGCSHLGSFKVDNWKQNLRAIYQCFVWSGTAEARKRKAKSCICHVCGVHLNRLHSCLYCVFFGCFTKKHIHEHAKAKRHNLAIDLMYGGIYCFLCQDYIYDKDMEIIAKEEQRKAWKMQGVGEKFSTWEPTKRELELLKHNPKRRKITSNCTIGLRGLINLGNTCFMNCIVQALTHTPLLRDFFLSDRHRCEMQSPSSCLVCEMSSLFQEFYSGHRSPHIPYKLLHLVWTHARHLAGYEQQDAHEFLIAALDVLHRHCKGDDNGKKANNPNHCNCIIDQIFTGGLQSDVTCQVCHGVSTTIDPFWDISLDLPGSSTPFWPLSPGSEGNVVNGESHVSGTTTLTDCLRRFTRPEHLGSSAKIKCSGCHSYQESTKQLTMKKLPIVACFHLKRFEHSAKLRRKITTYVSFPLELDMTPFMASSKESRMNGQYQQPTDSLNNDNKYSLFAVVNHQGTLESGHYTSFIRQHKDQWFKCDDAIITKASIKDVLDSEGYLLFYHKQFLEYE,"fluorescence signal generated by cleavage of the fluorogenic substrate AMC-Ubiquitin (in vitro deubiquitination assay, time course)",fluorescence resulting from the liberation of AMC increased over time in a USP22-dependent manner
